In paper PMC5779224 (2017):

Tests used:
Assay in all cases: ITC
AnkB R6-24 = biological target: T1, AnkB R6-24 (Homo sapiens)
T1 chain: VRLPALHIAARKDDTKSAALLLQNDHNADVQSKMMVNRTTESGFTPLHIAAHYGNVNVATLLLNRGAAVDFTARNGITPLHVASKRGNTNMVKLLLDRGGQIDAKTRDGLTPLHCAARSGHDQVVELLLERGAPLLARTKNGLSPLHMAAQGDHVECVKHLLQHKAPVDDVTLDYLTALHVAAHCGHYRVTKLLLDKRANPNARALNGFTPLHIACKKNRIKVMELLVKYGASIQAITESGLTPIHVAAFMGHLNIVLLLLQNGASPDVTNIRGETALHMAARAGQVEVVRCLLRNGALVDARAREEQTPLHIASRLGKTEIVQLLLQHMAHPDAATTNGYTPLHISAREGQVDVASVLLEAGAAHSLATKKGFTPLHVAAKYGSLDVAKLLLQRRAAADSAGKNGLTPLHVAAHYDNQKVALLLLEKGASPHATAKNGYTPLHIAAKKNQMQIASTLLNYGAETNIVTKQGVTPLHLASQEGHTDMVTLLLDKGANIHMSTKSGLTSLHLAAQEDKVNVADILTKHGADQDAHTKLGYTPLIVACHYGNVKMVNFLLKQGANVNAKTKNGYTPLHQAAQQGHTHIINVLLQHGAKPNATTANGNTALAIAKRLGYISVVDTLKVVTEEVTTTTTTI

AnkB R1-14 = biological target: T2, AnkB R1-14 (Homo sapiens)
T2 chain: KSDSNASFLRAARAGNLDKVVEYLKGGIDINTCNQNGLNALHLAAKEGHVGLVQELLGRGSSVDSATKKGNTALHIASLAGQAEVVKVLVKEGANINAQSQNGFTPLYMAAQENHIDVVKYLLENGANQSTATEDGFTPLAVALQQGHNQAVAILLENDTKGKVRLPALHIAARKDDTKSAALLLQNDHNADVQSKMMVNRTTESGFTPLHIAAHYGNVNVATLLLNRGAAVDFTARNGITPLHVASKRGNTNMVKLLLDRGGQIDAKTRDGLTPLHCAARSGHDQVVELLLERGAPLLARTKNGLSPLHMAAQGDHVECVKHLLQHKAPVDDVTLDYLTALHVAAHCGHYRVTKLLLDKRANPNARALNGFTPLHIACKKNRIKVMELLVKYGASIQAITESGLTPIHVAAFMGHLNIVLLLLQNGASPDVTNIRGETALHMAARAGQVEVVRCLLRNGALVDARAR

[1] = biological target: T3, AnkB 28–873 (MBD + full AI-c) (human, UniProt Q01484-2 28-873)
T3 chain: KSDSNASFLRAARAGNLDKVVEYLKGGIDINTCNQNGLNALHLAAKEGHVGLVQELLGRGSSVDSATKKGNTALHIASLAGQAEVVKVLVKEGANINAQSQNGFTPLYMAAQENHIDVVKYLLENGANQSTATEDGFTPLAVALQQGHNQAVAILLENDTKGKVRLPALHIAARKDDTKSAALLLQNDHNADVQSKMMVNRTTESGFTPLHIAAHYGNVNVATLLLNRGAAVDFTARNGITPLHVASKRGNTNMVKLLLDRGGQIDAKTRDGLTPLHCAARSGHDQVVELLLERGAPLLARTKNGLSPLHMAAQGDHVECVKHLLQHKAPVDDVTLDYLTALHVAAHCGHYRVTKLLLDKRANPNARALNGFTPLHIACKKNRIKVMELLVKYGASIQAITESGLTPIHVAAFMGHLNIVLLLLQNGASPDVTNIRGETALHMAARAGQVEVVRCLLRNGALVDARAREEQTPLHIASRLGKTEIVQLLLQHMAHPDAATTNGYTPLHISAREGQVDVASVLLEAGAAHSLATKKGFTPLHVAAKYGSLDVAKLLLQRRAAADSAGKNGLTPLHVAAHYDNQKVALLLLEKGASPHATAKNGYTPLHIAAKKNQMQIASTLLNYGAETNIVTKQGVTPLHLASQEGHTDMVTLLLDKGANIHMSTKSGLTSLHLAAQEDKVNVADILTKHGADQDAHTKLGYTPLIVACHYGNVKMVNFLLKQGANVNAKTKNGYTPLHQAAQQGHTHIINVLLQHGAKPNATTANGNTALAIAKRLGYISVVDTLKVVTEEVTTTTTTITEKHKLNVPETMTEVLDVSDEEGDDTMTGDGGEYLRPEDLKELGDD

B1: AnkB entire linker (aa 828–965) (domain or fragment)
chain: TEKHKLNVPETMTEVLDVSDEEGDDTMTGDGGEYLRPEDLKELGDDSLPSSQFLDGMNYLRYSLEGGRSDSLRSFSSDRSHTLSHASYLRDSAVMDDSVVIPSHQVSTLAKEAERNSYRLSWGTENLDNVALSSSPIH
Kd (AnkB R6-24): 4.7 µM
Kd (AnkB R1-14): 4.1 µM
Kd [1]: 2.2 µM
